Experimental data from publication PMC9482650, “Quantitative fragmentomics allow affinity mapping of interactomes” (Nature Communications, 2022).

Assays:
Test in all cases: holdup assay
Parameters in all cases: key: below the threshold = too weak to quantify, mostly under pKd 3.1 to 4
Conditions in all cases: plain residues with an end cap or a label only (N-terminal biotin on a linker: ado-ado)
RHPN1, Q8TCX5 = target: T1, RHPN1, Q8TCX5
T1 sequence (Q8TCX5 508-602, limits assumed, looked up): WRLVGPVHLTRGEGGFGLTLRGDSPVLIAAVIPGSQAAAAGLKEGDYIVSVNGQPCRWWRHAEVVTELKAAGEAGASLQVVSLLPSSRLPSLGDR

SHANK1, Q9Y566 = target: T2, SHANK1, Q9Y566
T2 sequence (Q9Y566 658-767, limits assumed, looked up): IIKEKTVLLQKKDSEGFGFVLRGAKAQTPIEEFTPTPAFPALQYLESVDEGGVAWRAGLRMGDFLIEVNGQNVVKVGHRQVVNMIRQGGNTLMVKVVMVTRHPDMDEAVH

LNX1_1, Q8TBB1 = target: LNX1_1, Q8TBB1
Sequence of LNX1_1, Q8TBB1 (Q8TBB1 261-371): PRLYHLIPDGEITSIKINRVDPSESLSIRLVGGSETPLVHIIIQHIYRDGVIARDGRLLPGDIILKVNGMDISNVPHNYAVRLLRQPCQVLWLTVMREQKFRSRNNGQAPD

TJP2_1, Q9UDY2 = target: TJP2_1, Q9UDY2
Sequence of TJP2_1, Q9UDY2 (Q9UDY2 24-128): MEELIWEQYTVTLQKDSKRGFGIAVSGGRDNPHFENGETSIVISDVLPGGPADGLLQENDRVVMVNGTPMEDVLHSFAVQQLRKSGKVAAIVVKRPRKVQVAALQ

IL16_3, Q14005 = target: IL16_3, Q14005
Sequence of IL16_3, Q14005 (Q14005 1107-1207): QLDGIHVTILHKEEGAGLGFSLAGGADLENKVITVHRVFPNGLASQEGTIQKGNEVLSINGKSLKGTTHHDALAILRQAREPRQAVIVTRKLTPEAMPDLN

PDZRN4_1, Q6ZMN7 = target: PDZRN4_1, Q6ZMN7
Sequence of PDZRN4_1, Q6ZMN7 (Q6ZMN7 213-318): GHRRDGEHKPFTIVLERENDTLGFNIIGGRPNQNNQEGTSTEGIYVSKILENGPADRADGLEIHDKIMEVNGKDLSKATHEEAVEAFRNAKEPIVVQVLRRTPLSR

LIN7C, Q9NUP9 = target: T3, LIN7C, Q9NUP9
T3 sequence (Q9NUP9 88-185, limits assumed, looked up): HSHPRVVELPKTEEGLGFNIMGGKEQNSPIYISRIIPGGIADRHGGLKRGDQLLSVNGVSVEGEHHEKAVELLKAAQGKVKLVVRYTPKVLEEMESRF

SNTG2, Q9NY99 = target: T4, SNTG2, Q9NY99
T4 sequence (Q9NY99 68-166, limits assumed, looked up): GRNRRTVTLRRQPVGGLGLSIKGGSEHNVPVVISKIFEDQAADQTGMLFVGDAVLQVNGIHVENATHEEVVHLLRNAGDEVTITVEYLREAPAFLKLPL

FRMPD2_3, Q68DX3 = target: FRMPD2_3, Q68DX3
Sequence of FRMPD2_3, Q68DX3 (Q68DX3 1073-1166): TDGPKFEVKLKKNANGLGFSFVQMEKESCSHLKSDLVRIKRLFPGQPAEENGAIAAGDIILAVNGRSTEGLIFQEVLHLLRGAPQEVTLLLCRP

FRMPD3, Q5JV73 = target: FRMPD3, Q5JV73
Sequence of FRMPD3, Q5JV73 (Q5JV73 12-100): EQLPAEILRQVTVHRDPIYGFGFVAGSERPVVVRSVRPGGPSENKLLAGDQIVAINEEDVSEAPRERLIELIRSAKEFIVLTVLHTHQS

Inadl_10, Q8NI35 = target: Inadl_10, Q8NI35
Sequence of Inadl_10, Q8NI35 (Q8NI35 1673-1763): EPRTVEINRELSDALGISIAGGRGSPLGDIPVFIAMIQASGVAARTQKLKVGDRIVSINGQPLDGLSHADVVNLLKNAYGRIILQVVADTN

MAGI3_2, Q5TCQ9 = target: MAGI3_2, Q5TCQ9
Sequence of MAGI3_2, Q5TCQ9 (Q5TCQ9 398-503): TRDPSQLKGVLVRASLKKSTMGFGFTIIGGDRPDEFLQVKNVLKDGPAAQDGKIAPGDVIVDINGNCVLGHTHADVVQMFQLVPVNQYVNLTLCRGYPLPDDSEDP

FRMPD4, Q14CM0 = target: FRMPD4, Q14CM0
Sequence of FRMPD4, Q14CM0 (Q14CM0 67-160): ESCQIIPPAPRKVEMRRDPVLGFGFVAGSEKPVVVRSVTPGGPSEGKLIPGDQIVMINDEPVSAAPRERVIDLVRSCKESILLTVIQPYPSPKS

PICK1, Q9NRD5 = target: PICK1, Q9NRD5
Sequence of PICK1, Q9NRD5 (Q9NRD5 17-115): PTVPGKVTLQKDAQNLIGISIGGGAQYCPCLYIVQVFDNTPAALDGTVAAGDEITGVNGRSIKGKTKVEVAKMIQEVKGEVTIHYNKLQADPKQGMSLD

Inadl_8, Q8NI35 = target: Inadl_8, Q8NI35
Sequence of Inadl_8, Q8NI35 (Q8NI35 1425-1530): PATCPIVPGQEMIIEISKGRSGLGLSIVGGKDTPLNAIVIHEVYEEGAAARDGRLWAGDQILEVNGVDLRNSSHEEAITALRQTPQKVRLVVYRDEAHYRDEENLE

MPDZ_12, O75970 = target: T5, MPDZ_12, O75970
T5 sequence (O75970 1857-1958, limits assumed, looked up): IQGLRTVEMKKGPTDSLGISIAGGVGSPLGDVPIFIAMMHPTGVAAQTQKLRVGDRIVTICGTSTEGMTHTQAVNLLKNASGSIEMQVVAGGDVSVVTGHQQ

FRMPD2_1, Q68DX3 = target: FRMPD2_1, Q68DX3
Sequence of FRMPD2_1, Q68DX3 (Q68DX3 770-861): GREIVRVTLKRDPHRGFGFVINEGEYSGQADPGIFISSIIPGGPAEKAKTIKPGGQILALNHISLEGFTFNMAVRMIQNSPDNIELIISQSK

DLG1_2, Q12959 = target: DLG1_2, Q12959
Sequence of DLG1_2, Q12959 (Q12959 314-412): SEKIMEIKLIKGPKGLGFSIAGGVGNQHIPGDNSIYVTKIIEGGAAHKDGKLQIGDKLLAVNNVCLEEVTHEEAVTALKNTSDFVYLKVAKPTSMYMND

NHERF4_1, Q86UT5-2 = target: NHERF4_1, Q86UT5-2
Sequence of NHERF4_1, Q86UT5-2 (Q86UT5 other isoform, or with tags, fused parts or gaps): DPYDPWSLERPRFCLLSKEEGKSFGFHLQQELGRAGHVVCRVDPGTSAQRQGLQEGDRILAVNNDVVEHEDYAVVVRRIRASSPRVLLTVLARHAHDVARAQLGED

DLG4_2, P78352 = target: DLG4_2, P78352
Sequence of DLG4_2, P78352 (P78352 155-259): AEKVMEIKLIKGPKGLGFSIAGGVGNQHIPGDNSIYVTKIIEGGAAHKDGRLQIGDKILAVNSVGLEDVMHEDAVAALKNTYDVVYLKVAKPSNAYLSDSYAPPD

Inadl_5, Q8NI35 = target: Inadl_5, Q8NI35
Sequence of Inadl_5, Q8NI35 (Q8NI35 673-780): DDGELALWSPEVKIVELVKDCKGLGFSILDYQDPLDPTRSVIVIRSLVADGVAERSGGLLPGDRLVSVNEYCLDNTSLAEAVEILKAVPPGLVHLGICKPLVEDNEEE

SYNJ2BP, P57105 = target: T6, SYNJ2BP, P57105
T6 sequence (P57105 8-110, limits assumed, looked up): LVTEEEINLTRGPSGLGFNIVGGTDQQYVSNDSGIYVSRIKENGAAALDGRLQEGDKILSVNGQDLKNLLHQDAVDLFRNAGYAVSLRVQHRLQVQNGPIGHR

HTRA2, O43464 = target: HTRA2, O43464
Sequence of HTRA2, O43464 (O43464 355-458): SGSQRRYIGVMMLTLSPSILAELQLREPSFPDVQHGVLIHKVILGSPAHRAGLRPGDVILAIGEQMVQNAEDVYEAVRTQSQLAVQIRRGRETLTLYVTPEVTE

MAGI1_1, Q96QZ7 = target: MAGI1_1, Q96QZ7
Sequence of MAGI1_1, Q96QZ7 (Q96QZ7 1-106): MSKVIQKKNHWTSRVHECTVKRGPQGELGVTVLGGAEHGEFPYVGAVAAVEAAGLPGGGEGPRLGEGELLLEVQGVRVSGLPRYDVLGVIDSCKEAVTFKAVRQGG

SCRIB_2, Q14160 = target: SCRIB_2, Q14160
Sequence of SCRIB_2, Q14160 (Q14160 857-960): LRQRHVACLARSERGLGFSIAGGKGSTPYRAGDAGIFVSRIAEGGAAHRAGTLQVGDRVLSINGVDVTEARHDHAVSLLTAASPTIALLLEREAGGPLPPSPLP

TJP3_3, O95049 = target: T7, TJP3_3, O95049
T7 sequence (O95049 375-456, limits assumed, looked up): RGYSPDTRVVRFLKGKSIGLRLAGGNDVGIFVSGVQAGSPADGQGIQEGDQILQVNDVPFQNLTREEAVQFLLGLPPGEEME

LRRC7, Q96NW7 = target: T8, LRRC7, Q96NW7
T8 sequence (Q96NW7 1440-1537, limits assumed, looked up): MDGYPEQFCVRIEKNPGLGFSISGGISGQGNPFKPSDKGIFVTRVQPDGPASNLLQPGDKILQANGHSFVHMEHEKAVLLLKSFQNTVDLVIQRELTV

DFNB31_1, Q9P202 = target: T9, DFNB31_1, Q9P202
T9 sequence (Q9P202 135-233, limits assumed, looked up): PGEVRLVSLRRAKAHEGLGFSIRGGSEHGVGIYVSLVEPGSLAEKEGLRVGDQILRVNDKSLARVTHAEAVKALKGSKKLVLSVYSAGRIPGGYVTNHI

Q: Which pKd (RHPN1, Q8TCX5) does the source give for PSHPRLQTHV [KIRREL2, Q6UWL6] here?
A: The pKd was 4.11.

Q: What about the pKd (SHANK1, Q9Y566) of the same binder?
A: Its pKd is 3.84.

Q: What about the pKd (LNX1_1, Q8TBB1) of the same binder?
A: The pKd was “below the threshold”.

Q: And the pKd (TJP2_1, Q9UDY2)?
A: The pKd was 4.58.

Q: And the pKd (IL16_3, Q14005)?
A: The pKd was “below the threshold”.

Q: And the pKd (PDZRN4_1, Q6ZMN7)?
A: Its pKd is “below the threshold”.

Q: And the pKd (LIN7C, Q9NUP9)?
A: Its pKd is 4.

Q: And the pKd (SNTG2, Q9NY99)?
A: Its pKd is “below the threshold”.

Q: And the pKd (FRMPD2_3, Q68DX3)?
A: Its pKd is “below the threshold”.

Q: And the pKd (FRMPD3, Q5JV73)?
A: Its pKd is “below the threshold”.

Q: And the pKd (Inadl_10, Q8NI35)?
A: Its pKd is “below the threshold”.

Q: What about the pKd (MAGI3_2, Q5TCQ9) of the same binder?
A: The pKd was 5.1.

Q: And the pKd (FRMPD4, Q14CM0)?
A: Its pKd is “below the threshold”.

Q: And the pKd (PICK1, Q9NRD5)?
A: The pKd was “below the threshold”.

Q: And the pKd (Inadl_8, Q8NI35)?
A: The pKd was 3.61.

Q: What about the pKd (MPDZ_12, O75970) of the same binder?
A: Its pKd is “below the threshold”.

Q: What about the pKd (FRMPD2_1, Q68DX3) of the same binder?
A: The pKd was “below the threshold”.

Q: And the pKd (DLG1_2, Q12959)?
A: Its pKd is 4.65.

Q: And the pKd (NHERF4_1, Q86UT5-2)?
A: The pKd was 3.62.

Q: And the pKd (DLG4_2, P78352)?
A: The pKd was 4.48.

Q: What about the pKd (Inadl_5, Q8NI35) of the same binder?
A: The pKd was “below the threshold”.

Q: What about the pKd (SYNJ2BP, P57105) of the same binder?
A: The pKd was 4.48.

Q: What about the pKd (HTRA2, O43464) of the same binder?
A: The pKd was “below the threshold”.

Q: What about the pKd (MAGI1_1, Q96QZ7) of the same binder?
A: The pKd was “below the threshold”.

Q: And the pKd (SCRIB_2, Q14160)?
A: Its pKd is 3.76.

Q: And the pKd (TJP3_3, O95049)?
A: Its pKd is “below the threshold”.

Q: And the pKd (LRRC7, Q96NW7)?
A: The pKd was “below the threshold”.

Q: And the pKd (DFNB31_1, Q9P202)?
A: Its pKd is “below the threshold”.

Q: What does the source list for NNNVVKVDSV [MTNR1A, P48039]?
A: pKd (RHPN1, Q8TCX5): below the threshold; pKd (SHANK1, Q9Y566): below the threshold; pKd (LNX1_1, Q8TBB1): below the threshold; pKd (TJP2_1, Q9UDY2): below the threshold; pKd (IL16_3, Q14005): below the threshold; pKd (PDZRN4_1, Q6ZMN7): below the threshold; pKd (LIN7C, Q9NUP9): below the threshold; pKd (SNTG2, Q9NY99): below the threshold; pKd (FRMPD2_3, Q68DX3): below the threshold; pKd (FRMPD3, Q5JV73): below the threshold; pKd (Inadl_10, Q8NI35): below the threshold; pKd (MAGI3_2, Q5TCQ9): below the threshold; pKd (FRMPD4, Q14CM0): below the threshold; pKd (PICK1, Q9NRD5): 4.06; pKd (Inadl_8, Q8NI35): 4.22; pKd (MPDZ_12, O75970): below the threshold; pKd (FRMPD2_1, Q68DX3): below the threshold; pKd (DLG1_2, Q12959): below the threshold; pKd (NHERF4_1, Q86UT5-2): 3.51; pKd (DLG4_2, P78352): below the threshold; pKd (Inadl_5, Q8NI35): below the threshold; pKd (SYNJ2BP, P57105): below the threshold; pKd (HTRA2, O43464): below the threshold; pKd (MAGI1_1, Q96QZ7): below the threshold; pKd (SCRIB_2, Q14160): below the threshold; pKd (TJP3_3, O95049): below the threshold; pKd (LRRC7, Q96NW7): below the threshold; pKd (DFNB31_1, Q9P202): below the threshold

Q: What does the source list for GIKKITSTAL [RPS6KA3, P51812]?
A: pKd (RHPN1, Q8TCX5): 3.93; pKd (SHANK1, Q9Y566): 5.16; pKd (LNX1_1, Q8TBB1): 3.8; pKd (TJP2_1, Q9UDY2): 3.89; pKd (IL16_3, Q14005): below the threshold; pKd (PDZRN4_1, Q6ZMN7): 4.6; pKd (LIN7C, Q9NUP9): below the threshold; pKd (SNTG2, Q9NY99): 4.23; pKd (FRMPD2_3, Q68DX3): 3.5; pKd (FRMPD3, Q5JV73): below the threshold; pKd (Inadl_10, Q8NI35): 3.66; pKd (MAGI3_2, Q5TCQ9): 4.08; pKd (FRMPD4, Q14CM0): 4.26; pKd (PICK1, Q9NRD5): below the threshold; pKd (Inadl_8, Q8NI35): 3.62; pKd (MPDZ_12, O75970): below the threshold; pKd (FRMPD2_1, Q68DX3): 3.54; pKd (DLG1_2, Q12959): 4.32; pKd (NHERF4_1, Q86UT5-2): 4.76; pKd (DLG4_2, P78352): 4.18; pKd (Inadl_5, Q8NI35): 3.52; pKd (SYNJ2BP, P57105): 4.52; pKd (HTRA2, O43464): 3.55; pKd (MAGI1_1, Q96QZ7): below the threshold; pKd (SCRIB_2, Q14160): 3.49; pKd (TJP3_3, O95049): below the threshold; pKd (LRRC7, Q96NW7): below the threshold; pKd (DFNB31_1, Q9P202): 4.39

Q: Which pKd (RHPN1, Q8TCX5) does the source give for NVYGIESVKI [GRIA2, P42262] here?
A: Its pKd is 3.81.

Q: And the pKd (SHANK1, Q9Y566)?
A: The pKd was 3.9.

Q: And the pKd (LNX1_1, Q8TBB1)?
A: The pKd was 4.07.

Q: And the pKd (TJP2_1, Q9UDY2)?
A: The pKd was 3.56.

Q: And the pKd (IL16_3, Q14005)?
A: Its pKd is “below the threshold”.

Q: What about the pKd (PDZRN4_1, Q6ZMN7) of the same binder?
A: The pKd was “below the threshold”.

Q: What about the pKd (LIN7C, Q9NUP9) of the same binder?
A: The pKd was “below the threshold”.

Q: What about the pKd (SNTG2, Q9NY99) of the same binder?
A: Its pKd is “below the threshold”.

Q: What about the pKd (FRMPD2_3, Q68DX3) of the same binder?
A: The pKd was 3.49.

Q: And the pKd (FRMPD3, Q5JV73)?
A: The pKd was “below the threshold”.

Q: What about the pKd (Inadl_10, Q8NI35) of the same binder?
A: Its pKd is “below the threshold”.

Q: And the pKd (MAGI3_2, Q5TCQ9)?
A: The pKd was 3.62.

Q: And the pKd (FRMPD4, Q14CM0)?
A: Its pKd is “below the threshold”.

Q: And the pKd (PICK1, Q9NRD5)?
A: Its pKd is “below the threshold”.

Q: And the pKd (Inadl_8, Q8NI35)?
A: Its pKd is “below the threshold”.

Q: What about the pKd (MPDZ_12, O75970) of the same binder?
A: The pKd was 3.61.

Q: What about the pKd (FRMPD2_1, Q68DX3) of the same binder?
A: Its pKd is 3.56.

Q: And the pKd (DLG1_2, Q12959)?
A: The pKd was 3.96.

Q: And the pKd (NHERF4_1, Q86UT5-2)?
A: Its pKd is 3.78.

Q: What about the pKd (DLG4_2, P78352) of the same binder?
A: Its pKd is 3.73.

Q: What about the pKd (Inadl_5, Q8NI35) of the same binder?
A: The pKd was “below the threshold”.

Q: And the pKd (SYNJ2BP, P57105)?
A: The pKd was 3.52.

Q: What about the pKd (HTRA2, O43464) of the same binder?
A: The pKd was “below the threshold”.

Q: And the pKd (MAGI1_1, Q96QZ7)?
A: Its pKd is 3.59.

Q: What about the pKd (SCRIB_2, Q14160) of the same binder?
A: The pKd was 3.49.

Q: What about the pKd (TJP3_3, O95049) of the same binder?
A: Its pKd is “below the threshold”.

Q: What about the pKd (LRRC7, Q96NW7) of the same binder?
A: The pKd was 3.49.

Q: What about the pKd (DFNB31_1, Q9P202) of the same binder?
A: Its pKd is “below the threshold”.
